# Test system: Escherichia coli TOP10
# Assay: shrunken log2 fold change of peptide-encoding DNA abundance (4.5 h post-induction vs induction); higher = less antimicrobial activity (less host growth inhibition)
# Conditions: time post-induction: 4.5 h; library: site-saturation at positions 5, 18, 19, 20
# 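Also: peptides expressed intracellularly from a pBAD plasmid library in pooled LB shake-flask culture, induced with 0.3% L-arabinose, DNA abundance read by NGS, three biological replicates, DESeq2 with apeglm shrinkage.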
row,Sequence,shrunken log2 fold change
1,RRIRSRPPRLPRPRPRPGFFPRP,0.176
2,RRIRNRPPRLPRPRPRPCTPPRP,-0.3
3,RRIRVRPPRLPRPRPRPACFPRP,0.169
4,RRIRKRPPRLPRPRPRPPMQPRP,0.439
5,RRIRQRPPRLPRPRPRPAMKPRP,-0.204
6,RRIRIRPPRLPRPRPRPINCPRP,-0.0883
7,RRIRNRPPRLPRPRPRPQYWPRP,-0.37
8,RRIRLRPPRLPRPRPRPAQKPRP,0.37
9,RRIRWRPPRLPRPRPRPDPYPRP,-0.198
10,RRIRHRPPRLPRPRPRPAWNPRP,0.287
11,RRIRYRPPRLPRPRPRPIIWPRP,-0.152
12,RRIRTRPPRLPRPRPRPGNDPRP,-0.219
13,RRIRTRPPRLPRPRPRPCHVPRP,-0.114
14,RRIRHRPPRLPRPRPRPGSTPRP,-0.681
15,RRIRLRPPRLPRPRPRPFKNPRP,-0.499
16,RRIRFRPPRLPRPRPRPEQGPRP,0.313
17,RRIRQRPPRLPRPRPRPLSIPRP,-0.325
18,RRIRWRPPRLPRPRPRPCEVPRP,-0.00149
19,RRIRQRPPRLPRPRPRPDWRPRP,0.0703
20,RRIRMRPPRLPRPRPRPVYTPRP,0.194
21,RRIRVRPPRLPRPRPRPTVLPRP,-0.0891
22,RRIRKRPPRLPRPRPRPFNSPRP,-0.0903
23,RRIRVRPPRLPRPRPRPDLDPRP,0.156
24,RRIRMRPPRLPRPRPRPAQSPRP,2.88
25,RRIRDRPPRLPRPRPRPSQYPRP,-0.697

row,Sequence,shrunken log2 fold change
1,RRIRPRPPRLPRPRPRPRGEPRP,0.646
2,RRIRYRPPRLPRPRPRPMRDPRP,-0.151
3,RRIRRRPPRLPRPRPRPVNKPRP,0.169
4,RRIRMRPPRLPRPRPRPMFIPRP,-0.403
5,RRIRARPPRLPRPRPRPALWPRP,0.833
6,RRIRRRPPRLPRPRPRPFQNPRP,0.0537
7,RRIRFRPPRLPRPRPRPPVIPRP,0.0684
8,RRIRPRPPRLPRPRPRPQRFPRP,0.0622
9,RRIRTRPPRLPRPRPRPWFQPRP,-0.195
10,RRIRMRPPRLPRPRPRPLMPPRP,0.13
11,RRIRHRPPRLPRPRPRPQAIPRP,-0.119
12,RRIRDRPPRLPRPRPRPFMTPRP,-0.185
13,RRIRRRPPRLPRPRPRPWLQPRP,0.0763
14,RRIRRRPPRLPRPRPRPFDCPRP,0.264
15,RRIRKRPPRLPRPRPRPCPNPRP,-0.0875
16,RRIRARPPRLPRPRPRPIVGPRP,-0.0201
17,RRIRNRPPRLPRPRPRPCMIPRP,-0.143
18,RRIRIRPPRLPRPRPRPWRWPRP,0.182
19,RRIRARPPRLPRPRPRPEINPRP,0.96
20,RRIRHRPPRLPRPRPRPFIQPRP,-0.577
21,RRIRSRPPRLPRPRPRPKFGPRP,-0.15
22,RRIRCRPPRLPRPRPRPHGCPRP,-0.037
23,RRIRHRPPRLPRPRPRPQKAPRP,-0.0296
24,RRIRHRPPRLPRPRPRPNGMPRP,-0.0133
25,RRIRGRPPRLPRPRPRPAQFPRP,0.199

row,Sequence,shrunken log2 fold change
1,RRIRARPPRLPRPRPRPHDPPRP,0.402
2,RRIRARPPRLPRPRPRPPVYPRP,0.0965
3,RRIRGRPPRLPRPRPRPRHVPRP,0.218
4,RRIRKRPPRLPRPRPRPACLPRP,0.222
5,RRIRFRPPRLPRPRPRPRSNPRP,-0.336
6,RRIRHRPPRLPRPRPRPNEIPRP,-0.21
7,RRIRWRPPRLPRPRPRPMWMPRP,-0.195
8,RRIRNRPPRLPRPRPRPHQTPRP,-0.0525
9,RRIRMRPPRLPRPRPRPAWHPRP,0.726
10,RRIRNRPPRLPRPRPRPVKMPRP,-0.107
11,RRIRTRPPRLPRPRPRPCAGPRP,-0.0463
12,RRIRQRPPRLPRPRPRPKCVPRP,-0.018
13,RRIRGRPPRLPRPRPRPQSKPRP,0.348
14,RRIRGRPPRLPRPRPRPSIKPRP,0.47
15,RRIRIRPPRLPRPRPRPWPCPRP,-0.0182
16,RRIRFRPPRLPRPRPRPVDNPRP,-0.0449
17,RRIRGRPPRLPRPRPRPRCAPRP,1.09
18,RRIRTRPPRLPRPRPRPQNTPRP,-0.622
19,RRIRCRPPRLPRPRPRPMKKPRP,0.0602
20,RRIRGRPPRLPRPRPRPYKTPRP,-0.0831
21,RRIRKRPPRLPRPRPRPARDPRP,1.1
22,RRIRPRPPRLPRPRPRPNEAPRP,-0.151
23,RRIRIRPPRLPRPRPRPEMLPRP,-0.119
24,RRIRCRPPRLPRPRPRPQGRPRP,0.445
25,RRIRKRPPRLPRPRPRPETDPRP,0.0366

row,Sequence,shrunken log2 fold change
1,RRIRARPPRLPRPRPRPCKSPRP,0.0355
2,RRIRWRPPRLPRPRPRPGCEPRP,0.901
3,RRIRNRPPRLPRPRPRPKDWPRP,0.0256
4,RRIRQRPPRLPRPRPRPWQCPRP,-0.1
5,RRIRGRPPRLPRPRPRPNCRPRP,0.0979
6,RRIRDRPPRLPRPRPRPPFEPRP,0.254
7,RRIRFRPPRLPRPRPRPIALPRP,-0.222
8,RRIRPRPPRLPRPRPRPWVGPRP,0.0889
9,RRIRWRPPRLPRPRPRPKIEPRP,-0.0252
10,RRIRHRPPRLPRPRPRPVIAPRP,-0.134
11,RRIRQRPPRLPRPRPRPRECPRP,0.147
12,RRIRWRPPRLPRPRPRPIAIPRP,-0.347
13,RRIRNRPPRLPRPRPRPCDKPRP,0.14
14,RRIRLRPPRLPRPRPRPGFGPRP,0.189
15,RRIRCRPPRLPRPRPRPCIAPRP,-0.11
16,RRIRIRPPRLPRPRPRPIKNPRP,-0.546
17,RRIRFRPPRLPRPRPRPEAYPRP,-0.0029
18,RRIRCRPPRLPRPRPRPDCQPRP,-0.0895
19,RRIRPRPPRLPRPRPRPQSDPRP,0.0199
20,RRIRIRPPRLPRPRPRPQGYPRP,-0.0157
21,RRIRKRPPRLPRPRPRPYRRPRP,-0.105
22,RRIRERPPRLPRPRPRPFKAPRP,2.45
23,RRIRLRPPRLPRPRPRPRLTPRP,0.143
24,RRIRTRPPRLPRPRPRPETTPRP,0.285
25,RRIRSRPPRLPRPRPRPKDWPRP,0.21

row,Sequence,shrunken log2 fold change
1,RRIRWRPPRLPRPRPRPDMFPRP,-0.0661
2,RRIRRRPPRLPRPRPRPYGFPRP,-0.298
3,RRIRHRPPRLPRPRPRPYDAPRP,-0.271
4,RRIRDRPPRLPRPRPRPRYGPRP,-0.0472
5,RRIRCRPPRLPRPRPRPAESPRP,0.0971
6,RRIRERPPRLPRPRPRPDCCPRP,-0.157
7,RRIRPRPPRLPRPRPRPNNAPRP,-0.19
8,RRIRYRPPRLPRPRPRPLEMPRP,-0.0768
9,RRIRKRPPRLPRPRPRPGPQPRP,0.561
10,RRIRRRPPRLPRPRPRPYIDPRP,-0.339
11,RRIRYRPPRLPRPRPRPHKWPRP,-0.581
12,RRIRERPPRLPRPRPRPEWKPRP,0.0685
13,RRIRTRPPRLPRPRPRPVVDPRP,0.452
14,RRIRSRPPRLPRPRPRPICEPRP,0.0675
15,RRIRTRPPRLPRPRPRPDWKPRP,-0.0156
16,RRIRERPPRLPRPRPRPYDMPRP,-0.222
17,RRIRYRPPRLPRPRPRPAIKPRP,-0.411
18,RRIRARPPRLPRPRPRPFMCPRP,0.618
19,RRIRLRPPRLPRPRPRPAWHPRP,0.183
20,RRIRCRPPRLPRPRPRPCAYPRP,-0.153
21,RRIRLRPPRLPRPRPRPHNFPRP,-0.115
22,RRIRFRPPRLPRPRPRPPTKPRP,0.709
23,RRIRMRPPRLPRPRPRPFRHPRP,0.0701
24,RRIRNRPPRLPRPRPRPFGQPRP,-0.282
25,RRIRQRPPRLPRPRPRPTAHPRP,-0.0756

row,Sequence,shrunken log2 fold change
1,RRIRQRPPRLPRPRPRPFYWPRP,-0.418
2,RRIRNRPPRLPRPRPRPNQPPRP,-0.055
3,RRIRPRPPRLPRPRPRPDASPRP,0.37
4,RRIRMRPPRLPRPRPRPVNWPRP,0.223
5,RRIRHRPPRLPRPRPRPESDPRP,-0.227
6,RRIRRRPPRLPRPRPRPFCLPRP,0.194
7,RRIRQRPPRLPRPRPRPPKEPRP,-0.168
8,RRIRNRPPRLPRPRPRPMTQPRP,-0.249
9,RRIRYRPPRLPRPRPRPMTIPRP,-0.936
10,RRIRWRPPRLPRPRPRPYVTPRP,-0.385
11,RRIRHRPPRLPRPRPRPMLPPRP,-0.0141
12,RRIRIRPPRLPRPRPRPSCSPRP,-0.83
13,RRIRVRPPRLPRPRPRPETFPRP,-0.0527
14,RRIRFRPPRLPRPRPRPCLDPRP,-0.35
15,RRIRWRPPRLPRPRPRPSGGPRP,2.77
16,RRIRPRPPRLPRPRPRPDILPRP,-0.51
17,RRIRNRPPRLPRPRPRPHWAPRP,0.13
18,RRIRARPPRLPRPRPRPPTWPRP,1.67
19,RRIRIRPPRLPRPRPRPFSVPRP,-0.248
20,RRIRKRPPRLPRPRPRPAEWPRP,0.0965
21,RRIRGRPPRLPRPRPRPCMQPRP,-0.0315
22,RRIRNRPPRLPRPRPRPTPAPRP,0.713
23,RRIRCRPPRLPRPRPRPAMTPRP,-0.0039
24,RRIRKRPPRLPRPRPRPFGKPRP,0.144
25,RRIRPRPPRLPRPRPRPADAPRP,0.29

# From the supplement of paper PMC9112550, “Optimization of the antimicrobial peptide Bac7 by deep mutational scanning” (BMC Biology, 2022)
